Source: publication PMC10269738

What was measured:
[1] = biological target: adhesion G protein-coupled receptor Latrophilin-2 of Vero cells (African green monkey (endogenous in Vero))
[2] = biological target: cell-surface annexin A2 of Vero cells (African green monkey (endogenous in Vero))

Substance: avian reovirus (ARV) σC protein, strain S1133 (natural protein)
- virus titer in Vero cells treated with anti-ADGRL2 monoclonal antibody, against untreated samples (log units lower) [1]: 3
- virus titer in Vero cells treated with anti-AnxA2 monoclonal antibody, against untreated samples (log units lower) [2]: 2.5
